Laboratory results reported in patent publication US20140271457A1 (AbbVie / Abbott, published 2014).

B1: DVD3009 (bispecific antibody, IgG1)
VH: EVQLVQSGAEVKKPGASVKVSCKASGYTFNNYGIIWVRQAPGQGLEWMGWINTYTGKPTYAQKFQGRVTMTTDTSTSTAYMELSSLRSEDTAVYYCARKLFNTVAVTDNAMDYWGQGTTVTVSSASTKGPEVTLRESGPGLVKPTQTLTLTCTLYGFSLSTSDMGVDWIRQPPGKGLEWLAHIWWDDVKRYNPALKSRLTISKDTSKNQVVLKLTSVDPVDTATYYCARTVSSGYIYYAMDYWGQGTLVTVSS
VL: DIQMTQSPSSLSASVGDRVTITCRASQDIENYLNWYQQKPGKAPKLLIYYTSRLQSGVPSRFSGSGSGTDFTLTISSLQPEDFATYFCQQGNTQPPTFGQGTKLEIKRTVAAPDIQMTQSPSSLSASVGDRVTISCRASQDIRNYLNWYQQKPGKAPKLLIFYTSKLHSGVPSRFSGSGSGTDYTLTISSLQPEDIATYYCQQGLTPPLTFGGGTKVEIKR
notes: DVD-Ig; wt hIgG1 + kappa constants
B2: DVD3083 (bispecific antibody, IgG1)
VH: EVQLVESGGGLVQPGGSLRLSCAASGFTFSNYGVTWVRQAPGKGLEWVSMIWADGSTHYASSVKGRFTISRDNSKNTLYLQMNSLRAEDTAVYYCAREWQHGPVAYWGQGTLVTVSSGGGGSGGGGSEVQLVQSGAEVKKPGASVKVSCKASGYTFTTYGVSWVRQAPGQGLEWMGEIYPGNYNTYYNEKFRGRVTMTTDTSTSTAYMELRSLRSDDTAVYYCARWRTSYFSDYGYFDYWGQGTTVTVSS
VL: DIQMTQSPSSLSASVGDRVTITCRASQLVSSAVAWYQQKPGKAPKLLIYWASARHTGVPSRFSGSGSGTDFTLTISSLQPEDFATYYCQQHYKTPFTFGQGTKLEIKRGGSGGGGSGDVVMTQSPLSLPVTLGQPASISCRSSQSLVHSHGNTYLHWYQQRPGQSPRLLIYTVSNRFSGVPDRFSGSGSGTDFTLKISRVEAEDVGVYYCSQSTHVPYTFGGGTKVEIKR
notes: as for B1
B3: DVD3093 (bispecific antibody, IgG1)
VH: EVQLVESGGGLVQPGGSLRLSCAASGFTFSNYGVEWVRQAPGKGLEWVSGIWADGSTHYADTVKSRFTISRDNSKNTLYLQMNSLRAEDTAVYYCAREWQHGPVAYWGQGTLVTVSSGGGGSGGGGSEVQLVQSGAEVKKPGASVKVSCKASGYTFTTYGVSWVRQAPGQGLEWMGEIYPGNYNTYYNEKFRGRVTMTTDTSTSTAYMELRSLRSDDTAVYYCARWRTSYFSDYGYFDYWGQGTTVTVSS
VL: DIQMTQSPSSLSASVGDRVTITCKASQLVSSAVAWYQQKPGKAPKLLIYWASTLHTGVPSRFSGSGSGTDFTLTISSLQPEDFATYYCQQHYRTPFTFGQGTKLEIKRGGSGGGGSGDVVMTQSPLSLPVTLGQPASISCRSSQSLVHSHGNTYLHWYQQRPGQSPRLLIYTVSNRFSGVPDRFSGSGSGTDFTLKISRVEAEDVGVYYCSQSTHVPYTFGGGTKVEIKR
notes: as for B1
B4: DVD3084 (bispecific antibody, IgG1)
VH: EVQLVESGGGLVQPGGSLRLSCAASGFTFSNYGVTWVRQAPGKGLEWVSMIWADGSTHYASSVKGRFTISRDNSKNTLYLQMNSLRAEDTAVYYCAREWQHGPVAYWGQGTLVTVSSASTKGPEVQLVQSGAEVKKPGASVKVSCKASGYTFTTYGVSWVRQAPGQGLEWMGEIYPGNYNTYYNEKFRGRVTMTTDTSTSTAYMELRSLRSDDTAVYYCARWRTSYFSDYGYFDYWGQGTTVTVSS
VL: DIQMTQSPSSLSASVGDRVTITCRASQLVSSAVAWYQQKPGKAPKLLIYWASARHTGVPSRFSGSGSGTDFTLTISSLQPEDFATYYCQQHYKTPFTFGQGTKLEIKRTVAAPDVVMTQSPLSLPVTLGQPASISCRSSQSLVHSHGNTYLHWYQQRPGQSPRLLIYTVSNRFSGVPDRFSGSGSGTDFTLKISRVEAEDVGVYYCSQSTHVPYTFGGGTKVEIKR
notes: as for B1
B5: DVD3094 (bispecific antibody, IgG1)
VH: EVQLVESGGGLVQPGGSLRLSCAASGFTFSNYGVEWVRQAPGKGLEWVSGIWADGSTHYADTVKSRFTISRDNSKNTLYLQMNSLRAEDTAVYYCAREWQHGPVAYWGQGTLVTVSSASTKGPEVQLVQSGAEVKKPGASVKVSCKASGYTFTTYGVSWVRQAPGQGLEWMGEIYPGNYNTYYNEKFRGRVTMTTDTSTSTAYMELRSLRSDDTAVYYCARWRTSYFSDYGYFDYWGQGTTVTVSS
VL: DIQMTQSPSSLSASVGDRVTITCKASQLVSSAVAWYQQKPGKAPKLLIYWASTLHTGVPSRFSGSGSGTDFTLTISSLQPEDFATYYCQQHYRTPFTFGQGTKLEIKRTVAAPDVVMTQSPLSLPVTLGQPASISCRSSQSLVHSHGNTYLHWYQQRPGQSPRLLIYTVSNRFSGVPDRFSGSGSGTDFTLKISRVEAEDVGVYYCSQSTHVPYTFGGGTKVEIKR
notes: as for B1
B6: DVD2736 (bispecific antibody, IgG1)
VH: EVQLVESGGGLVQPGGSLRLSCAASGFTFSNYGVEWVRQAPGKGLEWVSGIWADGSTHYADTVKSRFTISRDNSKNTLYLQMNSLRAEDTAVYYCAREWQHGPVAYWGQGTLVTVSSASTKGPEVTLRESGPGLVKPTQTLTLTCTLYGFSLSTSDMGVDWIRQPPGKGLEWLAHIWWDDVKRYNPALKSRLTISKDTSKNQVVLKLTSVDPVDTATYYCARTVSSGYIYYAMDYWGQGTLVTVSS
VL: DIQMTQSPSSLSASVGDRVTITCKASQLVSSAVAWYQQKPGKAPKLLIYWASTLHTGVPSRFSGSGSGTDFTLTISSLQPEDFATYYCQQHYRTPFTFGQGTKLEIKRTVAAPSVFIFPPDIQMTQSPSSLSASVGDRVTISCRASQDIRNYLNWYQQKPGKAPKLLIFYTSKLHSGVPSRFSGSGSGTDYTLTISSLQPEDIATYYCQQGLTPPLTFGGGTKVEIKR
notes: as for B1
B7: DVD2691 (bispecific antibody, IgG1)
VH: EVTLRESGPGLVKPTQTLTLTCTLYGFSLSTSDMGVDWIRQPPGKGLEWLAHIWWDDVKRYNPALKSRLTISKDTSKNQVVLKLTSVDPVDTATYYCARTVSSGYIYYAMDYWGQGTLVTVSSASTKGPEVQLVESGGGLVQPGGSLRLSCAASGFTFSNYGVTWVRQAPGKGLEWVSMIWADGSTHYASSVKGRFTISRDNSKNTLYLQMNSLRAEDTAVYYCAREWQHGPVAYWGQGTLVTVSS
VL: DIQMTQSPSSLSASVGDRVTISCRASQDIRNYLNWYQQKPGKAPKLLIFYTSKLHSGVPSRFSGSGSGTDYTLTISSLQPEDIATYYCQQGLTPPLTFGGGTKVEIKRTVAAPSVFIFPPDIQMTQSPSSLSASVGDRVTITCRASQLVSSAVAWYQQKPGKAPKLLIYWASARHTGVPSRFSGSGSGTDFTLTISSLQPEDFATYYCQQHYKTPFTFGQGTKLEIKR
notes: as for B1
B8: DVD3008 (bispecific antibody, IgG1)
VH: EVQLVQSGAEVKKPGASVKVSCKASGYTFNNYGIIWVRQAPGQGLEWMGWINTYTGKPTYAQKFQGRVTMTTDTSTSTAYMELSSLRSEDTAVYYCARKLFNTVAVTDNAMDYWGQGTTVTVSSGGGGSGGGGSEVTLRESGPGLVKPTQTLTLTCTLYGFSLSTSDMGVDWIRQPPGKGLEWLAHIWWDDVKRYNPALKSRLTISKDTSKNQVVLKLTSVDPVDTATYYCARTVSSGYIYYAMDYWGQGTLVTVSS
VL: DIQMTQSPSSLSASVGDRVTITCRASQDIENYLNWYQQKPGKAPKLLIYYTSRLQSGVPSRFSGSGSGTDFTLTISSLQPEDFATYFCQQGNTQPPTFGQGTKLEIKRGGSGGGGSGDIQMTQSPSSLSASVGDRVTISCRASQDIRNYLNWYQQKPGKAPKLLIFYTSKLHSGVPSRFSGSGSGTDYTLTISSLQPEDIATYYCQQGLTPPLTFGGGTKVEIKR
notes: as for B1
B9: DVD2687 (bispecific antibody, IgG1)
VH: EVQLVESGGGLVQPGGSLRLSCAASGFTFSNYGVTWVRQAPGKGLEWVSMIWADGSTHYASSVKGRFTISRDNSKNTLYLQMNSLRAEDTAVYYCAREWQHGPVAYWGQGTLVTVSSASTKGPSVFPLAPEVTLRESGPGLVKPTQTLTLTCTLYGFSLSTSDMGVDWIRQPPGKGLEWLAHIWWDDVKRYNPALKSRLTISKDTSKNQVVLKLTSVDPVDTATYYCARTVSSGYIYYAMDYWGQGTLVTVSS
VL: DIQMTQSPSSLSASVGDRVTITCRASQLVSSAVAWYQQKPGKAPKLLIYWASARHTGVPSRFSGSGSGTDFTLTISSLQPEDFATYYCQQHYKTPFTFGQGTKLEIKRTVAAPDIQMTQSPSSLSASVGDRVTISCRASQDIRNYLNWYQQKPGKAPKLLIFYTSKLHSGVPSRFSGSGSGTDYTLTISSLQPEDIATYYCQQGLTPPLTFGGGTKVEIKR
notes: as for B1
B10: DVD2737 (bispecific antibody, IgG1)
VH: EVQLVESGGGLVQPGGSLRLSCAASGFTFSNYGVEWVRQAPGKGLEWVSGIWADGSTHYADTVKSRFTISRDNSKNTLYLQMNSLRAEDTAVYYCAREWQHGPVAYWGQGTLVTVSSASTKGPSVFPLAPEVTLRESGPGLVKPTQTLTLTCTLYGFSLSTSDMGVDWIRQPPGKGLEWLAHIWWDDVKRYNPALKSRLTISKDTSKNQVVLKLTSVDPVDTATYYCARTVSSGYIYYAMDYWGQGTLVTVSS
VL: DIQMTQSPSSLSASVGDRVTITCKASQLVSSAVAWYQQKPGKAPKLLIYWASTLHTGVPSRFSGSGSGTDFTLTISSLQPEDFATYYCQQHYRTPFTFGQGTKLEIKRTVAAPDIQMTQSPSSLSASVGDRVTISCRASQDIRNYLNWYQQKPGKAPKLLIFYTSKLHSGVPSRFSGSGSGTDYTLTISSLQPEDIATYYCQQGLTPPLTFGGGTKVEIKR
notes: as for B1

Target: Recombinant Human IL-13 (human, UniProt P35225 35-146, limits assumed)
Assay: Biacore SPR
Procedure: The BIACORE assay (GE, Healthcare Piscataway, N.J.) determined the affinity of antibodies or DVD-Ig with kinetic measurements of on-rate and off-rate constants. Binding of antibodies or DVD-Ig proteins to a target antigen (for example, a purified recombinant target antigen) was determined by surface plasmon resonance-based measurements with a Biacore T200 using running HBS-EP+buffer from GE Healthcare at 25° C. All chemicals were obtained from GE Healthcare or otherwise from a different source as described in the text. For example, approximately 5000 RU of goat anti-mouse IgG, (Fcγ), fragment specific polyclonal antibody (Pierce Biotechnology Inc, Rockford, Ill.) diluted in 10 mM sodium acetate (pH 4.5) was directly immobilized across a CM5 research grade biosensor chip using a standard amine coupling kit according to manufacturer's instructions. Unreacted moieties on the biosensor surface were blocked with ethanolamine. Modified carboxymethyl dextran surface in flowcell 1 was used as a reference surface. Rate constants were derived by making kinetic binding measurements at different antigen concentrations ranging from 0.8-100 nM. Binding was recorded as a function of time and kinetic rate constants were calculated. In this assay, association rate was evaluated for 5 min and dissociation was monitored for 10 min. For kinetic screening analysis, rate equations derived from the 1:1 binding model were fitted simultaneously to association and dissociation phases of all injections (using global fit analysis with Rmax fit locally to account for capture variations) with the use of Biaevaluation software. Purified antibodies or DVD-Ig proteins were diluted in HEPES-buffered saline for capture across goat anti-mouse IgG specific reaction surfaces. Antibodies or DVD-Ig proteins to be captured as a ligand were injected over reaction matrices at a flow rate of 5 μl/minute. The association and dissociation rate constants, kₒₙ (M⁻¹ s⁻¹) and koff (s⁻¹) were determined under a continuous flow rate of 50 μl/minute. Rate constants were derived by making kinetic binding measurements at different antigen concentrations ranging from 0.8-100 nM. Binding was recorded as a function of time and kinetic rate constants were calculated. In this assay, association rate was evaluated for 5 min and dissociation was monitored for 10 min.

Recombinant Human IL-13, sequence (P35225 35-146 limits assumed): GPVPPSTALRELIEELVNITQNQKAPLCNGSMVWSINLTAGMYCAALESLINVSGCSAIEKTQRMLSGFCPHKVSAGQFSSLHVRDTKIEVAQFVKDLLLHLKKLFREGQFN

Row | Binder | Kd [pM] | koff [s⁻¹] | kon [M⁻¹ s⁻¹]
1 | B1 | 360 | 3.2e-05 | 87000
2 | B2 | 38 | 2e-06 | 52000
3 | B3 | < 20 | < 1e-06 | 51000
4 | B4 | 12 | 1.1e-06 | 87000
5 | B5 | 67 | 5.9e-06 | 89000
6 | B6 | 300 | 4.6e-05 | 150000
7 | B7 | 130 | 0.00013 | 950000
8 | B8 | 140 | 1.5e-05 | 110000
9 | B9 | 470 | 5e-05 | 110000
10 | B10 | 500 | 6.2e-05 | 120000
